B1: No. 2: DATAS fragment; melanoma assoc. antigen (mutated) 1; exon extension (nucleic acid, listed as Homo sapiens)
DNA: GGCTCAGGGGGCACGTTTGCGTTTGGACCTGTCTGCGCGTTCTCCTGCGTGGCAGTCCTGATTTCCATACTTCTGGAGAATCCATTTCGTTAACACTGAAAGCCAGTTCTCTTTTCCTGGCAGTTTTTTTCATTTTATTTTTGGCATTTTTTACAAGATACCGTTCGGGAAAGGCTTTTGAAAGGACGGAAGCGTATTCACTGTGCGCCAGTACTCCTGGCTGTGCTGTGGTTTCTCCCGACGTGCACATCGATCTCGTATGTGTGGCATCTGATATTAAACGGGAGGTTTTAAGAAGCGTCTGCCGTGATCATGGAGCTTCGGAAGCGGGAATGGTTCTTCCGGGTTTGCTGTTTTGTCTGTTTCCCCCTTGTGTGGTTTCCGCCTGCGACAGTTCCAGAATTTGCTCTCCCACTCAGTGTGCTCTGCAGCTG
B2: No. 3: DATAS fragment; aminoacylase 1; exon extension (nucleic acid, listed as Homo sapiens)
DNA: CCAGGCAGCTGGCGAGGGGGTCACCCTAGAGTTTGCTCAGGTATGGACTTGGGACATGTGATGGGAGAGTGTGGGAGCCGGGGGAGACCCAAGTGTGCAACAGTGGAGTGTGTGCTTGGTGTGTCTGCATATGTCTGGGCATTTCTTTATCTGTGACAGACACATTTTATTCCAACAAGCATTCATTGTAGAGGCCACTGTGGGTGCTGGGGAATGCTGTGGGGAGTAAAATTAGGCACAGTTCATGCCCTTGTATGGTGAAACGGGGAGATATAAATCAAACATTTATGTGATATTACTTTTTTCTGAGAGAATCTCACTCCGTCAC

What was measured:
[1] = system: PSMA messenger RNA (mRNA); settings: LNCaP prostate cancer cell line after exposure; cited from earlier work
[2] = system: HLA class I (e.g. HLA-A2) expressing adherent 293T cells; experiment: CTL assay on reverse transfected microarray (caspase activation, fluorescent Z-VAD); assay type: cell-based, human; settings: HLA-matched CD8+ T cells from prostate cancer patients incubated 4 hours on array; red fluorescent signal = positive response
From the text: Additional patient samples were procured for the cytotoxic T Lymphocyte (CTL) assay. […] (PBMC) were isolated from blood drawn from patients with relevant clinical parameters, and with patient consent. Clinical data generally included patent history, physiopathology, and parameters relating to prostate cancer physiology. PBMCs were collected from 6 prostate cancer patients that met the study requirements. Duplicate samples were obtained from a single patient.
The 192 selected DATAS fragments were PCR amplified out of the library vector and directionally cloned into a eukaryotic expression vector down stream from staggered start site initiation codons. This configuration allows the DATAS fragment to be expressed in all the open reading frames, which is required because the correct reading frame is not always readily apparent.
Plasmid preparations were performed and the expression vectors containing the selcted DATAS fragment clones were re-arrayed into 96 well plates, which were subsequently used to spot glass slides for use in the CTL assay previously disclosed in International Patent Application No. PTC/US2005/032392, the disclosure of which is incorporated by reference in its entirety.
A design file containing the desired microarray positions of the DATAS expression vectors was uploaded into a high resolution scanner. The expression vectors containing the DATAS fragments were mixed with gelatin and lipofectamine and then spotted in duplicate in a pattern that matched the design file uploaded into the high resolution microarray scanner. The following positive controls, negative controls and experimental samples were spotted on the array.
The spotted arrays were then overlaid with HLA class I (e.g. HLA-A2) expressing adherent 293T cells and cultured for 48-72 hours to allow cells time to express vector-encoded transcripts.
The assay for CTL reactivity was then performed by incubating HLA-matched CD8^+ T cells from normal and prostate cancer patients on cultured reverse transfected microarray slides for 4 hours. Prior to incubation with the array, T cells from normals or patients may need to be expanded in vitro, to a small or large extent, to enhance the frequency of responding T cells. An inhibitor of activated caspase, fluorescence-tagged (sulfo-Rhodamine)-Z-VAD, is present throughout the cell incubation to bind caspases that become activated when antigen expressing adherent cells on certain spots are induced to die by the CTL. The slides are then washed to remove unbound fluorescent Z-VAD and 2-color (Green and Red) fluorescence images of the microarray slides are obtained with the microarray scanner.
Analysis and confirmation of data is then determined by visual inspection of the scanned image. The success of the reverse transfection is evaluated by observing green fluorescence at EGFP vector control spots. Then the fluorescence threshold(s) are adjusted on microarray scanner as necessary to establish relevant background and positive control signal intensities. […] Using the coordinate locations for the spots, the cDNAs yielding positive responses are identified.

| Molecule | PSMA messenger RNA (mRNA) down-regulated [1] | Patient ID with positive hit [2] |
| --- | --- | --- |
| C[C@]12CCC(=O)C[C@@H]1CC[C@@H]1[C@@H]2CC[C@]2(C)[C@@H](O)CC[C@@H]12 [5-alpha-dihydroxytestosterone] | 8-10 fold | – |
| B1 | – | EYGRT; MSMPB |
| B2 | – | MSMPB |

Source: patent publication US20120141376A1, “PROSTATE SPECIFIC TRANSCRIPTS AND THE USE THEREOF FOR PROSTATE CANCER THERAPEUTICS AND DIAGNOSTICS” (priority 2006, published 2012)
